Measurements taken from US20110039770A1, “INHIBITORS OF PROTEIN KINASE C ISOFORMS AND USES THEREOF” (PHARMAGAP INC., priority 2005, published 2011).
Where a SMILES comes first, the peptide text is derived from it. [ ]: non-standard residue; d: D form.

Target: T1, PKC-ε (Homo sapiens, UniProt Q02156)
T1 sequence (Q02156 1-737): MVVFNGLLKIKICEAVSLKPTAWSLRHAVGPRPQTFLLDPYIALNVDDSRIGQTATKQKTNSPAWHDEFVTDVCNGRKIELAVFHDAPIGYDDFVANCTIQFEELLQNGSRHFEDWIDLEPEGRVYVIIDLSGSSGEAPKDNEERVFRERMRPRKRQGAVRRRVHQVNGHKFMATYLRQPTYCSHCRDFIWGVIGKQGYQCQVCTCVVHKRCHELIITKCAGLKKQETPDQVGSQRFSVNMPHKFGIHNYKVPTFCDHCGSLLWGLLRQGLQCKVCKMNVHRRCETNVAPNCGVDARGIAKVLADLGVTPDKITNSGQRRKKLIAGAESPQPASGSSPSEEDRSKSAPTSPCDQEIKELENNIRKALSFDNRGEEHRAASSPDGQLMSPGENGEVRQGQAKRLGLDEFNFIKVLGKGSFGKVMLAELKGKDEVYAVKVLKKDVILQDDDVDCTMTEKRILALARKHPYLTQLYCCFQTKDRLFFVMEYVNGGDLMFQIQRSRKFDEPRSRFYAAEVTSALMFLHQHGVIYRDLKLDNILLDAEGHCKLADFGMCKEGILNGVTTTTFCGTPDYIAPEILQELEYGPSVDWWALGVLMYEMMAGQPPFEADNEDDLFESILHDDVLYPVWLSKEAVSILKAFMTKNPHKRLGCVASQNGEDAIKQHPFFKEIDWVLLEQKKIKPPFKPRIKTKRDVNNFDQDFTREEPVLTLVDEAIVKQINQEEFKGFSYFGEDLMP
Test: ELISA-based competitive binding assay with purified PKC isoform
Parameters: key to Affinity for PKC isoform ε: —: no detectable affinity; Low to very low affinity at 10X or 20X or both PRE concentrations in at least one cell line in the cell extract assay; Low affinity in purified isoform assay.; Moderate affinity at 10X or 20X or both PRE concentrations in at least one cell line in the cell extract assay.; High affinity at 10X or 20X or both PRE concentrations in at least one cell line in the cell extract assay; High affinity in purified isoform assay
Settings: for Affinity for PKC isoform ε: Purified isoform; for calculated binding capacity (100-% n, DMSO apparent binding subtracted) / inhibition at 50 µM / inhibition at 100 µM: purified PKC-ε; for inhibition at 50 µM / inhibition at 100 µM: read-out: calculated binding capacity (100-% n, DMSO apparent binding subtracted)
Description: Peptides PRE 1, 2, 3, 4, 5, 6, 7, 8, 9, 10, 11, 12 and 13 (see Table 3) were tested for their ability to interfere with binding of PKC isoform-specific antibodies to their target PKC isoforms using a competitive binding assay and purified PKC isoforms.
Procedure: Competitive binding was assessed using a 96 well plate ELISA-based assay as described below.
Greiner 96 well ELISA plates were coated with the appropriate PKC isoform diluted in PBSN (PBS with Calcium/Magnesium+0.05% Sodium azide w/w). 50 μL/well at 250 ng/mL was used. Control wells contained PBSN only. Plates were incubated overnight at 4° C.
The plates were washed 3 times with 200 μL of dH2O per well, then 100 μL of blocking solution was added per well and the plate incubated for 1 h at 37° C. The washing steps with dH2O were repeated and 50 μL of the appropriate PRE solution (PRE stock solution [20 mM in DMSO] diluted in PBSN) was added and the plate incubated for 1 h at room temperature.
After incubation, 5 μL of 1.1:400 anti-PKC (isoform specific antibody) was added per well (to provide a final concentration of 1:4000). For PKC-epsilon, 1.1:800 dilution was used and for PKC-zeta a 1.1:100 dilution was used due to high and low binding affinity, respectively. The plates were then incubated 1 h at room temperature, followed by washing with dH2O as described above.
50 μL of 1:1000 dilution of Alkaline Phosphatase (AP) conjugated antibody (anti-rabbit for all except zeta, which was anti-goat) was then added and the plate incubated for 1 h at room temperature. Washing with dH2O was then repeated. Finally, 100 μL of pNPP solution in pNPP buffer (2 mM MgCl2, 100 mM Sodium bicarbonate in water, pH 9.8) was added to all wells and incubated for 8 minutes for α, βI, βII ε, and ζ, or for 15-20 mins for δ (until sufficient coloration is observed). The reaction was stopped by addition of Stop solution (2N NaOH) and the absorbance at 405 nm was read on a Galaxy Plate reader.
Controls were PKC without PRE; blank controls, and controls containing the final concentrations of DMSO used for solubilizing the PREs. The non-specific binding capacity related to DMSO was also measured.
The antibodies used were as follows: anti-PKC α (Cat. No. SC-208); anti-PKC βI (Cat. No. SC-209); anti-PKC βII (Cat. No. SC-210); anti-PKC δ (Cat. No. SC-213); anti-PKC ε (Cat. No. SC-214); anti-PKC ζ (Cat. No. SC-216-G) (all from Santa Cruz Biotechnology, Inc.). The AP-conjugated antibodies were obtained from Jackson Immuno Research Laboratories (West Grove, Pa.).
Calculations: The OD values measured at 405 nm represent the free PKC coated per well.
OD405 PKC alone−Blank OD405 of each sample=OD405 coated isoform
(OD405 of sample X/OD405 coated isoform)×100=% n that represents the percentage of X binding compared to control.
100-% n measures the relative binding capacity of X towards the tested isoform.
The apparent binding capacity of the DMSO samples was then subtracted from X binding capacity.
All measurements were made in triplicate and the values in the table represent the averaged calculated binding capacity values after subtraction of the DMSO apparent binding capacity (averaged from 12 values, respectively 10.80, 11.20 and 16.40 corresponding to the concentrations of DMSO used to dilute the […] at 200, 100 and 50 μM respectively). The results allow for quantitative comparison of the binding capacity of each PRE towards an individual isoform within each table, but not among isoforms due to differences in sensitivity of the specific antibodies toward the secondary antibody. This applies particularly to PKC-delta. As noted above, the colour development duration was increased 2-3 times and, as a result, the OD405 measurements may be overestimated for this isoform.

| Affinity for PKC isoform ε | Molecule | other results |
| --- | --- | --- |
| — | Ac-KDAQNLI-NH2 [PRE 12] |  |
| — | Ac-ISIGILNQADK-NH2 [PRE 10] | calculated binding capacity (100-% n, DMSO apparent binding subtracted) (PRE 50 μM): 0.91%; calculated binding capacity (100-% n, DMSO apparent binding subtracted) (PRE 200 μM): 1.75% |
| H | CC[C@H](C)[C@H](NC(=O)[C@H](CO)NC(=O)[C@@H](NC(=O)CNC(=O)[C@@H](NC(=O)[C@H](CC(C)C)NC(=O)[C@H](CC(N)=O)NC(=O)[C@H](CCC(N)=O)NC(=O)[C@H](C)NC(=O)[C@H](CC(=O)O)NC(=O)CNC(=O)CNC(=O)[C@H](CCCCN)NC(=O)[C@@H](NC(=O)[C@H](CCC(=O)O)NC(=O)[C@H](CCC(N)=O)NC(=O)[C@@H](NC(=O)CNC(=O)[C@H](CCCCN)NC(=O)[C@H](C)NC(C)=O)[C@@H](C)CC)C(C)C)[C@@H](C)CC)[C@@H](C)CC)C(N)=O [PRE 3] (Ac-AKGIQEVKGGDAQNLIGISI-NH2) |  |
| L | Ac-isigilqnadk-NH2 (Ac-[dI][dS][dI]G[dI][dL][dQ][dN][dA][dD][dK]-NH2; SMILES CC[C@@H](C)[C@@H](NC(C)=O)C(=O)N[C@H](CO)C(=O)N[C@@H](C(=O)NCC(=O)N[C@@H](C(=O)N[C@H](CC(C)C)C(=O)N[C@H](CCC(N)=O)C(=O)N[C@H](CC(N)=O)C(=O)N[C@H](C)C(=O)N[C@H](CC(=O)O)C(=O)N[C@H](CCCCN)C(N)=O)[C@H](C)CC)[C@H](C)CC) [PRE 9] | calculated binding capacity (100-% n, DMSO apparent binding subtracted) (PRE 50 μM): 16.35%; calculated binding capacity (100-% n, DMSO apparent binding subtracted) (PRE 100 μM): 8.53% |
| L | Ac-ISIGILQNADK-NH2 (not fully specified; printed as Ac-ISIGILQNADK-NH2) [PRE 7] |  |
| — | Ac-RDAQNLI-NH2 [PRE 13] |  |
| — | ILEDKGGDAQNLIGISI [PRE 8] |  |
| L | Ac-RDAQNLIGISI-NH2 [PRE 11] |  |
| — | RRKKGGKDFVVKR [PRE 1] | calculated binding capacity (100-% n, DMSO apparent binding subtracted) (PRE 100 μM): 5.47%; calculated binding capacity (100-% n, DMSO apparent binding subtracted) (PRE 200 μM): 0.83% |
| — | Ac-KDANQLIGISI-NH2 [PRE 6] | calculated binding capacity (100-% n, DMSO apparent binding subtracted) (PRE 50 μM): 2.61%; calculated binding capacity (100-% n, DMSO apparent binding subtracted) (PRE 100 μM): 0.46% |
| — | CC[C@H](C)[C@H](NC(=O)[C@H](CO)NC(=O)[C@@H](NC(=O)CNC(=O)[C@@H](NC(=O)[C@H](CC(C)C)NC(=O)[C@H](CC(N)=O)NC(=O)[C@H](CCC(N)=O)NC(=O)[C@H](C)NC(=O)[C@H](CC(=O)O)NC(=O)[C@H](CCCCN)NC(C)=O)[C@@H](C)CC)[C@@H](C)CC)C(N)=O [PRE 4, Ac-KDAQNLIGISI-NH2] (Ac-KDAQNLIGISI-NH2) | inhibition at 50 µM (PRE 50 μM): 0%; inhibition at 100 µM (PRE 100 μM): 0% |
| — | CC[C@H](C)[C@H](NC(=O)[C@H](CO)NC(=O)[C@@H](NC(=O)CNC(=O)[C@@H](NC(=O)[C@H](CC(C)C)NC(=O)[C@H](CC(N)=O)NC(=O)[C@H](CCC(N)=O)NC(=O)[C@H](C)NC(=O)[C@H](CC(=O)O)NC(=O)[C@H](CCCCN)NC(=O)CNC(=O)CNC(=O)[C@H](CCCCN)NC(=O)[C@@H](NC(=O)[C@H](CCC(=O)O)NC(=O)[C@H](CCC(N)=O)NC(=O)[C@@H](NC(=O)CNC(=O)[C@H](CCCCN)NC(=O)[C@H](C)NC(C)=O)[C@@H](C)CC)C(C)C)[C@@H](C)CC)[C@@H](C)CC)C(N)=O [PRE 5] (Ac-AKGIQEVKGGKDAQNLIGISI-NH2) | inhibition at 50 µM (PRE 50 μM): 0%; inhibition at 100 µM (PRE 100 μM): 0% |
